Here are results for 4 molecules from publication PMC6486548, “Structure, dynamics and roX2-lncRNA binding of tandem double-stranded RNA binding domains dsRBD1,2 of Drosophila helicase Maleless”.

Data set [1] concerns the target T1, MLE dsRBD1,2 (UniProt P24785 1-257). In words: ITC; n=0.84; Filter binding: 20 mM HEPES/NaOH pH 8.0, 150 mM NaCl, 5 mM MgCl2, on ice; ITC: 10 mM HEPES pH 8.0, 75 mM NaCl, 2.5 mM MgCl2, 1 mM b-mercaptoethanol, 20 C; NMR:
The following applies: protein: recombinant; tags: N-terminal His6 removed by TEV; blunt, internal A-C mismatch and G-U pairs. In general terms: In ITC the heat of successive injections is recorded.

Data set [2] deals with T2, MLE dsRBD2 (UniProt P24785 155-257). As to the kind of experiment: ITC; n=0.70; Filter binding: 20 mM HEPES/NaOH pH 8.0, 150 mM NaCl, 5 mM MgCl2, on ice; ITC: 10 mM HEPES pH 8.0, 75 mM NaCl, 2.5 mM MgCl2, 1 mM b-mercaptoethanol, 20 C; NMR:
The following applies: protein: recombinant; tags: N-terminal His6 removed by TEV; blunt, internal A-C mismatch and G-U pairs.

Data set [3] has as its target MLE dsRBD1 K53+54E (UniProt P24785 1-84, K53E;K54E). In words: NMR titration; 1.3x RNA; Filter binding: 20 mM HEPES/NaOH pH 8.0, 150 mM NaCl, 5 mM MgCl2, on ice; ITC: 10 mM HEPES pH 8.0, 75 mM NaCl, 2.5 mM MgCl2, 1 mM b-mercaptoethanol, 20 C; NMR:
The conditions noted are these: protein: recombinant; tags: N-terminal His6 removed by TEV; blunt, internal A-C mismatch and G-U pairs.

Data set [4] concerns the target MLE dsRBD1 K53E (UniProt P24785 1-84, K53E). The data set is described as above. The conditions noted are these: protein: recombinant; tags: N-terminal His6 removed by TEV; blunt, internal A-C mismatch and G-U pairs.
Data set [5] has as its target MLE dsRBD1 K54E (UniProt P24785 1-84, K54E). Described as above. The conditions noted are these: protein: recombinant; tags: N-terminal His6 removed by TEV; blunt, internal A-C mismatch and G-U pairs.
The target of data set [6] is T2, MLE dsRBD2. As to the kind of experiment: NMR titration; Filter binding: 20 mM HEPES/NaOH pH 8.0, 150 mM NaCl, 5 mM MgCl2, on ice; ITC: 10 mM HEPES pH 8.0, 75 mM NaCl, 2.5 mM MgCl2, 1 mM b-mercaptoethanol, 20 C; NMR:
The conditions noted are these: protein: recombinant; tags: N-terminal His6 removed by TEV; blunt, internal A-C mismatch and G-U pairs.

Data set [7] deals with MLE dsRBD1 (UniProt P24785 1-84). The data set is described as above. The conditions noted are these: protein: recombinant; tags: N-terminal His6 removed by TEV; blunt, internal A-C mismatch and G-U pairs.
For data set [8], the target named is T1, MLE dsRBD1,2. As to the kind of experiment: NMR titration; severe line broadening; Filter binding: 20 mM HEPES/NaOH pH 8.0, 150 mM NaCl, 5 mM MgCl2, on ice; ITC: 10 mM HEPES pH 8.0, 75 mM NaCl, 2.5 mM MgCl2, 1 mM b-mercaptoethanol, 20 C; NMR:
The conditions noted are these: protein: recombinant, tags: N-terminal His6 removed by TEV.

In data set [9] the target is T2, MLE dsRBD2. As to the kind of experiment: ITC; n=0.93; Filter binding: 20 mM HEPES/NaOH pH 8.0, 150 mM NaCl, 5 mM MgCl2, on ice; ITC: 10 mM HEPES pH 8.0, 75 mM NaCl, 2.5 mM MgCl2, 1 mM b-mercaptoethanol, 20 C; NMR:
The conditions noted are these: protein: recombinant; tags: N-terminal His6 removed by TEV; hairpin.

Data set [10] deals with T2, MLE dsRBD2. In words: filter binding; 5 mM Mg2+; Filter binding: 20 mM HEPES/NaOH pH 8.0, 150 mM NaCl, 5 mM MgCl2, on ice; ITC: 10 mM HEPES pH 8.0, 75 mM NaCl, 2.5 mM MgCl2, 1 mM b-mercaptoethanol, 20 C; NMR:
The following applies: protein: recombinant; tags: N-terminal His6 removed by TEV; hairpin.

In data set [11] the target is T1, MLE dsRBD1,2. Described as above. The following applies: protein: recombinant; tags: N-terminal His6 removed by TEV; hairpin.
The target in data set [12] is T1, MLE dsRBD1,2. In words: ITC; n=0.95; Filter binding: 20 mM HEPES/NaOH pH 8.0, 150 mM NaCl, 5 mM MgCl2, on ice; ITC: 10 mM HEPES pH 8.0, 75 mM NaCl, 2.5 mM MgCl2, 1 mM b-mercaptoethanol, 20 C; NMR:
The conditions noted are these: protein: recombinant; tags: N-terminal His6 removed by TEV; hairpin.

The target in data set [13] is MLE dsRBD1,2 linker deletion (UniProt P24785 1-257, del85-140). In words: filter binding; affinity similar to dsRBD1,2; Filter binding: 20 mM HEPES/NaOH pH 8.0, 150 mM NaCl, 5 mM MgCl2, on ice; ITC: 10 mM HEPES pH 8.0, 75 mM NaCl, 2.5 mM MgCl2, 1 mM b-mercaptoethanol, 20 C; NMR:
The conditions noted are these: protein: recombinant; tags: N-terminal His6 removed by TEV; hairpin.

B1: SL7 18mer duplex (dsRNA)
RNA 1: AGACGUGUAAAAUGUUGC
RNA 2: GUAACGUUUUACGCGCCU
For B1, the Kd (as a rule, the equilibrium constant for the complex coming apart) was 3.18 ± 0.48 µM in [1], 2.71 ± 0.19 µM in data set [2], around 33 µM in data set [6] and around 470 µM in data set [7]. Further, the binding result in [3], in data set [4] and in [5] was “no binding” each time.

B2: SL7 23mer duplex (dsRNA)
RNA 1: UUAAAAGACGUGUAAAAUGUUGC
RNA 2: GUAACGUUUUACGCGCCUUUUCC
Consider B2, for which the binding result in data set [8] (23 + 23 nt, terminal U-C mismatches, internal A-C mismatch) was “binds”.

B3: SL7 14merLoop (structured_RNA)
RNA: GUGUAAAAUGUUGCAAUAUAUAGUAACGUUUUACGC
Consider B3, for which the Kd in data set [9] is 5.92 ± 1.31 µM; in [10], around 22 µM; in data set [11] it was 6.8 µM; in data set [12], 4.66 ± 0.71 µM. The binding result in data set [13] is “binds”.

B4: UR23mer (dsRNA)
RNA 1: UAAAGUGCUUAUAGUGCAGGUAG
RNA 2: ACCUGCACUAUAAGCACUUUAAG
On to B4, for which, in [8] (3' overhangs 2 nt on both ends), the binding result is “binds”.
